Measured values from US20220010021A1 (Sanofi, published 2022).

T1: human beta-Klotho (KLB) (human, UniProt Q86Z14 53-997)
T1 construct: also called human KLB
T1 sequence (looked up): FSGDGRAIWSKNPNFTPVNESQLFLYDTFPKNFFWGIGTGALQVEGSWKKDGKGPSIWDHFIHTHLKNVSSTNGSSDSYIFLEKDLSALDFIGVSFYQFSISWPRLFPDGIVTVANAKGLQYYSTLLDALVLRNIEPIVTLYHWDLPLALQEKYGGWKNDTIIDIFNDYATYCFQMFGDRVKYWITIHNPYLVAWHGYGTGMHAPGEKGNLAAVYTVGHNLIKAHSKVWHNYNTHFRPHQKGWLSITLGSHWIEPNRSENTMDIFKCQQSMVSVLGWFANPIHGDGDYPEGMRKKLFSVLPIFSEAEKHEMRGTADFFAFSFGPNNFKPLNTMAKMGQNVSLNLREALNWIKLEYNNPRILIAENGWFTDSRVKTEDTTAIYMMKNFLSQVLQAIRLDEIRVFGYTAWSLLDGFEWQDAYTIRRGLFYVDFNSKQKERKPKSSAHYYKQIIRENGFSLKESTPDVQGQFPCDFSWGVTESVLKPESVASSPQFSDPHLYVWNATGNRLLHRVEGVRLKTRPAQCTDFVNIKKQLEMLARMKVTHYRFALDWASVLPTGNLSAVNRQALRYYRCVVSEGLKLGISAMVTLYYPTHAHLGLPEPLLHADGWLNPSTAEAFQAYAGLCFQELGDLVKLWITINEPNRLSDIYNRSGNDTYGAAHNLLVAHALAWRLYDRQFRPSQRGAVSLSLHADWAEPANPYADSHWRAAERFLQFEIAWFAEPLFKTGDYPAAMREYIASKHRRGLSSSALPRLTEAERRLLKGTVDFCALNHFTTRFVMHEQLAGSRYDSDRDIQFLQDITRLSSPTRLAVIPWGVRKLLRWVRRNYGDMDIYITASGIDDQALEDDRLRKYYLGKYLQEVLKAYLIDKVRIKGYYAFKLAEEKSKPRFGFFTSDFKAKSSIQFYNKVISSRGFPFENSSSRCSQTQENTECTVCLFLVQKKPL

B1: 16H7 variant, light chain G24T (antibody, human IgG4 S228P, lambda, V domains shown)
VH: not shown
VL: SYVLTQPPSVSVAPGQTARITCGTNNIGSESVHWYQQKPGQAPVLVVYDDSDRPSGIPERFSGSNSGNTATLTISRVEAGDEADYYCQVWDGNSDHVVFGGGTKLTVLG
notes: IgG4 backbone
B2: 16H7 variant, light chain G24W (antibody, human IgG4 S228P, lambda, V domains shown)
VH: not shown
VL: SYVLTQPPSVSVAPGQTARITCGWNNIGSESVHWYQQKPGQAPVLVVYDDSDRPSGIPERFSGSNSGNTATLTISRVEAGDEADYYCQVWDGNSDHVVFGGGTKLTVLG
notes: IgG4 backbone
B3: 16H7 variant, light chain I27G (antibody, IgG4, V domains shown)
VH: not shown
VL: SYVLTQPPSVSVAPGQTARITCGGNNGGSESVHWYQQKPGQAPVLVVYDDSDRPSGIPERFSGSNSGNTATLTISRVEAGDEADYYCQVWDGNSDHVVFGGGTKLTVLG
notes: IgG4 backbone; copies: 2 + 2
B4: 16H7 variant, light chain I27L (antibody, IgG4, V domains shown)
VH: not shown
VL: SYVLTQPPSVSVAPGQTARITCGGNNLGSESVHWYQQKPGQAPVLVVYDDSDRPSGIPERFSGSNSGNTATLTISRVEAGDEADYYCQVWDGNSDHVVFGGGTKLTVLG
notes: IgG4 backbone; copies: 2 + 2
B5: 16H7 variant, light chain N25V (antibody, human IgG4 S228P, lambda, V domains shown)
VH: not shown
VL: SYVLTQPPSVSVAPGQTARITCGGVNIGSESVHWYQQKPGQAPVLVVYDDSDRPSGIPERFSGSNSGNTATLTISRVEAGDEADYYCQVWDGNSDHVVFGGGTKLTVLG
notes: IgG4 backbone
B6: 16H7 variant, light chain N25W (antibody, human IgG4 S228P, lambda, V domains shown)
VH: not shown
VL: SYVLTQPPSVSVAPGQTARITCGGWNIGSESVHWYQQKPGQAPVLVVYDDSDRPSGIPERFSGSNSGNTATLTISRVEAGDEADYYCQVWDGNSDHVVFGGGTKLTVLG
notes: IgG4 backbone
B7: 16H7 variant, light chain I27E (antibody, human IgG4 S228P, lambda, V domains shown)
VH: not shown
VL: SYVLTQPPSVSVAPGQTARITCGGNNEGSESVHWYQQKPGQAPVLVVYDDSDRPSGIPERFSGSNSGNTATLTISRVEAGDEADYYCQVWDGNSDHVVFGGGTKLTVLG
notes: IgG4 backbone
B8: 16H7 variant, light chain I27S (antibody, human IgG4 S228P, lambda, V domains shown)
VH: not shown
VL: SYVLTQPPSVSVAPGQTARITCGGNNSGSESVHWYQQKPGQAPVLVVYDDSDRPSGIPERFSGSNSGNTATLTISRVEAGDEADYYCQVWDGNSDHVVFGGGTKLTVLG
notes: IgG4 backbone
B9: 16H7 variant, light chain N25A (antibody, human IgG4 S228P, lambda, V domains shown)
VH: not shown
VL: SYVLTQPPSVSVAPGQTARITCGGANIGSESVHWYQQKPGQAPVLVVYDDSDRPSGIPERFSGSNSGNTATLTISRVEAGDEADYYCQVWDGNSDHVVFGGGTKLTVLG
notes: IgG4 backbone
B10: 16H7 variant, light chain N25L (antibody, human IgG4 S228P, lambda, V domains shown)
VH: not shown
VL: SYVLTQPPSVSVAPGQTARITCGGLNIGSESVHWYQQKPGQAPVLVVYDDSDRPSGIPERFSGSNSGNTATLTISRVEAGDEADYYCQVWDGNSDHVVFGGGTKLTVLG
notes: IgG4 backbone
B11: 16H7 variant, light chain N25E (antibody, human IgG4 S228P, lambda, V domains shown)
VH: not shown
VL: SYVLTQPPSVSVAPGQTARITCGGENIGSESVHWYQQKPGQAPVLVVYDDSDRPSGIPERFSGSNSGNTATLTISRVEAGDEADYYCQVWDGNSDHVVFGGGTKLTVLG
notes: IgG4 backbone
B12: 16H7 variant, light chain N25C (antibody, human IgG4 S228P, lambda, V domains shown)
VH: not shown
VL: SYVLTQPPSVSVAPGQTARITCGGCNIGSESVHWYQQKPGQAPVLVVYDDSDRPSGIPERFSGSNSGNTATLTISRVEAGDEADYYCQVWDGNSDHVVFGGGTKLTVLG
notes: IgG4 backbone
B13: 16H7 variant, light chain N25G (antibody, human IgG4 S228P, lambda, V domains shown)
VH: not shown
VL: SYVLTQPPSVSVAPGQTARITCGGGNIGSESVHWYQQKPGQAPVLVVYDDSDRPSGIPERFSGSNSGNTATLTISRVEAGDEADYYCQVWDGNSDHVVFGGGTKLTVLG
notes: IgG4 backbone
B14: 16H7 variant, light chain N25K (antibody, human IgG4 S228P, lambda, V domains shown)
VH: not shown
VL: SYVLTQPPSVSVAPGQTARITCGGKNIGSESVHWYQQKPGQAPVLVVYDDSDRPSGIPERFSGSNSGNTATLTISRVEAGDEADYYCQVWDGNSDHVVFGGGTKLTVLG
notes: IgG4 backbone
B15: 16H7 variant, light chain N25R (antibody, human IgG4 S228P, lambda, V domains shown)
VH: not shown
VL: SYVLTQPPSVSVAPGQTARITCGGRNIGSESVHWYQQKPGQAPVLVVYDDSDRPSGIPERFSGSNSGNTATLTISRVEAGDEADYYCQVWDGNSDHVVFGGGTKLTVLG
notes: IgG4 backbone
B16: 16H7 variant, light chain N25P (antibody, human IgG4 S228P, lambda, V domains shown)
VH: not shown
VL: SYVLTQPPSVSVAPGQTARITCGGPNIGSESVHWYQQKPGQAPVLVVYDDSDRPSGIPERFSGSNSGNTATLTISRVEAGDEADYYCQVWDGNSDHVVFGGGTKLTVLG
notes: IgG4 backbone
B17: 16H7 variant, light chain N25S (antibody, human IgG4 S228P, lambda, V domains shown)
VH: not shown
VL: SYVLTQPPSVSVAPGQTARITCGGSNIGSESVHWYQQKPGQAPVLVVYDDSDRPSGIPERFSGSNSGNTATLTISRVEAGDEADYYCQVWDGNSDHVVFGGGTKLTVLG
notes: IgG4 backbone
B18: 16H7 variant, light chain G24Y (antibody, human IgG4 S228P, lambda, V domains shown)
VH: not shown
VL: SYVLTQPPSVSVAPGQTARITCGYNNIGSESVHWYQQKPGQAPVLVVYDDSDRPSGIPERFSGSNSGNTATLTISRVEAGDEADYYCQVWDGNSDHVVFGGGTKLTVLG
notes: IgG4 backbone
B19: 16H7 variant, light chain N25I (antibody, human IgG4 S228P, lambda, V domains shown)
VH: not shown
VL: SYVLTQPPSVSVAPGQTARITCGGINIGSESVHWYQQKPGQAPVLVVYDDSDRPSGIPERFSGSNSGNTATLTISRVEAGDEADYYCQVWDGNSDHVVFGGGTKLTVLG
notes: IgG4 backbone
B20: 16H7 variant, light chain G24V (antibody, human IgG4 S228P, lambda, V domains shown)
VH: not shown
VL: SYVLTQPPSVSVAPGQTARITCGVNNIGSESVHWYQQKPGQAPVLVVYDDSDRPSGIPERFSGSNSGNTATLTISRVEAGDEADYYCQVWDGNSDHVVFGGGTKLTVLG
notes: IgG4 backbone
B21: 16H7 variant, light chain N25Q (antibody, human IgG4 S228P, lambda, V domains shown)
VH: not shown
VL: SYVLTQPPSVSVAPGQTARITCGGQNIGSESVHWYQQKPGQAPVLVVYDDSDRPSGIPERFSGSNSGNTATLTISRVEAGDEADYYCQVWDGNSDHVVFGGGTKLTVLG
notes: IgG4 backbone
B22: 16H7 variant, light chain I27K (antibody, IgG4, V domains shown)
VH: not shown
VL: SYVLTQPPSVSVAPGQTARITCGGNNKGSESVHWYQQKPGQAPVLVVYDDSDRPSGIPERFSGSNSGNTATLTISRVEAGDEADYYCQVWDGNSDHVVFGGGTKLTVLG
notes: IgG4 backbone; copies: 2 + 2
B23: 16H7 variant, light chain I27D (antibody, human IgG4 S228P, lambda, V domains shown)
VH: not shown
VL: SYVLTQPPSVSVAPGQTARITCGGNNDGSESVHWYQQKPGQAPVLVVYDDSDRPSGIPERFSGSNSGNTATLTISRVEAGDEADYYCQVWDGNSDHVVFGGGTKLTVLG
notes: IgG4 backbone
B24: 16H7 variant, light chain N25M (antibody, human IgG4 S228P, lambda, V domains shown)
VH: not shown
VL: SYVLTQPPSVSVAPGQTARITCGGMNIGSESVHWYQQKPGQAPVLVVYDDSDRPSGIPERFSGSNSGNTATLTISRVEAGDEADYYCQVWDGNSDHVVFGGGTKLTVLG
notes: IgG4 backbone
B25: 16H7 variant, light chain N25H (antibody, human IgG4 S228P, lambda, V domains shown)
VH: not shown
VL: SYVLTQPPSVSVAPGQTARITCGGHNIGSESVHWYQQKPGQAPVLVVYDDSDRPSGIPERFSGSNSGNTATLTISRVEAGDEADYYCQVWDGNSDHVVFGGGTKLTVLG
notes: IgG4 backbone
B26: 16H7 variant, light chain N25T (antibody, human IgG4 S228P, lambda, V domains shown)
VH: not shown
VL: SYVLTQPPSVSVAPGQTARITCGGTNIGSESVHWYQQKPGQAPVLVVYDDSDRPSGIPERFSGSNSGNTATLTISRVEAGDEADYYCQVWDGNSDHVVFGGGTKLTVLG
notes: IgG4 backbone

Legend:
[1] = target: human FGFR1c/KLB cell surface receptor complex on iLite FGF21 reporter cells (human, UniProt P11362 22-822; Q86Z14 1-1044); test: cell-based or functional assay; on Mean E max (%): reference of the scale not given here
human FGFR1c/KLB cell surface receptor complex on iLite FGF21 reporter cells, sequence (P11362 22-822, chain 1 of 2): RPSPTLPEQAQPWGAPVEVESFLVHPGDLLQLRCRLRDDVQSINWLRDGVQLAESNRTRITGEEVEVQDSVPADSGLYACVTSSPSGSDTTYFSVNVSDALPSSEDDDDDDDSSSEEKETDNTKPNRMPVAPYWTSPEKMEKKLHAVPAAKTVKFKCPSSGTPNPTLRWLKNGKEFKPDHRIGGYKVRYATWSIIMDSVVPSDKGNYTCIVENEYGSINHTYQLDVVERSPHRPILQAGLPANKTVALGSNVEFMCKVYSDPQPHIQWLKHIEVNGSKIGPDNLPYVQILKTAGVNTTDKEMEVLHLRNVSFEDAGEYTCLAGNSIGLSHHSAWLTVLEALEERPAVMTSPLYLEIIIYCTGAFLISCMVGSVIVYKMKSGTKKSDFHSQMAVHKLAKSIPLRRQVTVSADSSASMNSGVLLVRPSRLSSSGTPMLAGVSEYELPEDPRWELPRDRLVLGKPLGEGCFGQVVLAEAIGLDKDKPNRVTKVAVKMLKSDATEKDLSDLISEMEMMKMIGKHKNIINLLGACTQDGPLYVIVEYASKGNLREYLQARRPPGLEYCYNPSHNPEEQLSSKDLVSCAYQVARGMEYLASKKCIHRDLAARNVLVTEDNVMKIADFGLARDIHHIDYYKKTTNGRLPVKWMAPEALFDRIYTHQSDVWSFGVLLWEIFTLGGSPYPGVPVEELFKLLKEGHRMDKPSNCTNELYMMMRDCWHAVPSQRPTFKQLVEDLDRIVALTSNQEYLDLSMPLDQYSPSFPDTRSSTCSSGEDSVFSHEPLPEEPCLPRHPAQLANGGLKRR
human FGFR1c/KLB cell surface receptor complex on iLite FGF21 reporter cells, sequence (Q86Z14 whole entry, chain 2 of 2): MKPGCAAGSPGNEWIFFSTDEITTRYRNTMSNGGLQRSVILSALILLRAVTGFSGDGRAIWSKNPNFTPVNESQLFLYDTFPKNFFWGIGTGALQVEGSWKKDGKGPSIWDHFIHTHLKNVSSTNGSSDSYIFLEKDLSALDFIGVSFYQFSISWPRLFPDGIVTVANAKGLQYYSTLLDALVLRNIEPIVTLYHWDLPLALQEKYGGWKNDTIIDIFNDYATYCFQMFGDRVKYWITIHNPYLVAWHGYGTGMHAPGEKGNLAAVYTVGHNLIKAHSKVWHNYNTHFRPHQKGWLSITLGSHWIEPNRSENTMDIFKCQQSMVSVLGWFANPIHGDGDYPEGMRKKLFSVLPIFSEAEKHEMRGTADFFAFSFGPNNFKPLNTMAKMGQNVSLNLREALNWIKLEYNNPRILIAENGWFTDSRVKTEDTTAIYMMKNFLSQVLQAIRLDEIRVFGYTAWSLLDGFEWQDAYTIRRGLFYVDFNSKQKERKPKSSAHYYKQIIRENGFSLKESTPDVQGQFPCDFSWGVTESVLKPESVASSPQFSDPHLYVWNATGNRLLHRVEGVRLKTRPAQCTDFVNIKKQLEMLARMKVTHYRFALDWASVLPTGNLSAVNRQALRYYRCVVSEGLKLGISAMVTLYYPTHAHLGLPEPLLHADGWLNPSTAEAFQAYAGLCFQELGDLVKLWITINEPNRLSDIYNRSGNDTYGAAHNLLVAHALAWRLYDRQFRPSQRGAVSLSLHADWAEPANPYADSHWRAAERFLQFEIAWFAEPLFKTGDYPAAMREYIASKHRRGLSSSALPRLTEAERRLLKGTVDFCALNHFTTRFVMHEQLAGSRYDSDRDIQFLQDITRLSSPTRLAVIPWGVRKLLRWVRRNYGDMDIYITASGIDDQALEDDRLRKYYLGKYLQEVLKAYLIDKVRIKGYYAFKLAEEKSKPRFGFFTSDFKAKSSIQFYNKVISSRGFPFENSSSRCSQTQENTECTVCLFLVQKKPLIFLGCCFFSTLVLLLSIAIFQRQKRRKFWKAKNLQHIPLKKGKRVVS

[2] = target: T1, human beta-Klotho (KLB); test: BLI off-rate screen (Octet), Ab captured via Fc;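 further: antibody supernatants applied at 25 µg/mL, dissociation monitored over 1800 s in D-PBS with 0.1% BSA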

Row | Binder | Mean E max (%) [1] [%] | Mean EC50 [1] [nM] | koff [2] [s⁻¹]
1 | B1 | 106 | 0.139 | 6.9e-05
2 | B2 | 110 | 0.145 | 3.7e-05
3 | B3 | 111 | 0.123 | 3e-05
4 | B4 | 110 | 0.124 | 6.2e-05
5 | B5 | 106 | 0.121 | 3.2e-05
6 | B6 | 99 | 0.099 | 1e-07
7 | B7 | 98 | 0.121 | 4.6e-05
8 | B8 | 106 | 0.141 | 4.9e-05
9 | B9 | 96 | 0.081 | 1.6e-05
10 | B10 | 109 | 0.134 | 1.2e-05
11 | B11 | 106 | 0.107 | 3e-05
12 | B12 | 110 | 0.133 | 3.6e-06
13 | B13 | 100 | 0.118 | 3.2e-05
14 | B14 | 110 | 0.182 | 3.3e-05
15 | B15 | 104 | 0.178 | 4.1e-05
16 | B16 | 106 | 0.132 | 1.2e-05
17 | B17 | 98 | 0.131 | 4.4e-05
18 | B18 | 107 | 0.137 | 4.1e-05
19 | B19 | 104 | 0.122 | 2.2e-05
20 | B20 | 102 | 0.125 | 8.5e-05
21 | B21 | 102 | 0.096 | 1e-07
22 | B22 | 99 | 0.127 | 5.3e-05
23 | B23 | 107 | 0.107 | 4.6e-05
24 | B24 | 102 | 0.131 | 3.1e-06
25 | B25 | 106 | 0.137 | 3e-05
26 | B26 | 111 | 0.117 | 2.3e-05
